Test results: patent publication US20090208938A1 (CENTRE NATIONAL DE LA RECHERCHE SCIENTIFIQUE, published 2009)

Target: T1, MCM2-7 protein complex (Xenopus egg extracts) (Xenopus, UniProt P55861 1-886; P49739 1-807; P30664 1-863; P55862 1-735; Q5FWY4 1-821; Q91876 …)
T1 construct: Endogenous complex of the six proteins MCM2 to MCM7; also called MCM2-7 proteins; MCM2-7 complex
Experiment: co-immunoprecipitation with MCM3 antibody from S phase egg extracts, western blot with MCM8 antibody

binding result: no binding
B1: Xenopus MCM8 protein (enzyme)
chain: MSQGWRGGSGGWRGGGGGGGNPYAGAWRGRPWRGRGQGGTWSRNNGRDPVCFAPPKPQLTQTTLDKYIPYKGWKLYFSEAYSDNSPFLEKVRAFEKFFKKQIELYDKDEIERKGSILVDYKELLQDEDLSASIPLSSELKDMPEKVLECMGLAIHQVLTKDLETHAADLQQQEGLRTEEAPIVNVPFIHARVFNYDTLTSLKNLRASLYGKYVALRGTVVRVGNIKPLCTKMAFSCNMCGDIQCFPLPDGKYTVPTKCPVPECRGRSFTANRSSPLTVTVDWQTIKVQELMSDDQREAGRIPRTVECELIQDLVDSCVPGDMITVTGIVKVSNTRDGGFKNKNNKCMFLLYIEANSVSNSKGQKGKSTEDSGNHGASMDFSLKDLYAIQEIQSQENLFQLIVNSLCPTIYGHELVKAGLSLALFGGCQKYADDKNRIPIRGDPHILVVGDPGLGKSQMLQAVCNVAPRGVYVCGNTTTTSGLTVTLSRDTTTGDFGLEAGALVLGDQGICGIDEFDKMGNQHQALLEAMEQQSISLAKAGIVCSLPARTSIIAAANPVGGHYNKGKTVSENLKMGSALLSRFDLVFILVDTPNEDHDHLLSEHVMAMRSGAKEIQSVDITRINTQNSNTSILEVPSERPLGERLKLRTGEHFDALPHQLLRKFVGYARQYVHPSLSPDAAQILQDFYLELRKQNQGIDSTPITTRQLESLIRLTEARARLELREKATKEDAEEVVQIMKYSLLGTFSDEFGKLDFQRSQHGSGMSNRSKAKKFVSALNRVAEQTYNNLFEFQQLRQIARELQIQVIDFEAFIGSLNDQGYLLKKGPRVFQLQTM
notes: Full-length protein: translated in vitro in rabbit reticulocytes, or the endogenous protein of Xenopus egg extracts; also called 90 kDa polypeptide
